Results published in CN113388035A (MABWELL SHANGHAI BIOTECHNOLOGY CO LTD; SHANGHAI PUMING …, dated 2021).

T1: 人IL7 protein (human, UniProt P13232 26-177)
T1 construct: also called 人IL7蛋白
T1 sequence (looked up): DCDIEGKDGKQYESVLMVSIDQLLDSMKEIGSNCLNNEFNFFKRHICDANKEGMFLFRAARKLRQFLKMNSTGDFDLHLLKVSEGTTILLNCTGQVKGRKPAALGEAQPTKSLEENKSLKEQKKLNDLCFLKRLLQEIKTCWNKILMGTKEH


Tests used:
[1] = target: T2, 人TSLP (human thymic stromal lymphopoietin) protein (human, UniProt Q969D9 29-159); assay: BLI (Fortebio), antibody captured on AMC probe, 100nM TSLP, 1:1 fit
T2 construct: also called hTSLP; 人TSLP蛋白

[2] = target: T2, 人TSLP (human thymic stromal …); assay: BLI (Fortebio), method of Example 2, antibody on probe, TSLP in solution
[3] = target: T1, 人IL7 protein; assay: ELISA, IL7 coated at 1ug/ml, HRP-goat anti-human IgG
[4] = target: T2, 人TSLP (human thymic stromal …); assay: BLI (Fortebio), method of Example 2, antibody on probe, TSLP in solution; remark: listed apart in the source

Binder | Kd [1] [pM] | koff [1] [s⁻¹] | kon [1] [M⁻¹ s⁻¹] | Kd [2] [pM] | koff [2] [s⁻¹] | kon [2] [M⁻¹ s⁻¹] | binding result [3] | Kd [4] [pM] | Response [4] | koff [4] [s⁻¹] | kon [4] [M⁻¹ s⁻¹]
hzD01Hm5Lm4 (humanized, affinity-matured anti-human TSLP antibody) (antibody, human IgG2, V domains shown, not shown: human kappa light chain constant region) VH: EVQLVQSGAEVKKPGASVKVSCKASGYTFTNYFIDWVRQAPGQGLEWIGVIDAFSGGSNFNEKFKGRVTMTRDTSTSTAYMELSSLRSEDTAVYFCARESEVGEGFAYWGQGTLVTVSS VL: DIQMTQSPSSLSASVGDRVTISCRASQDISNYLNWYQQKPGKAPKLLIYYTSTLHSGVPSRFSGSGSGTDYTLTISSLQPEDIATYFCQQGNTLPYTFGQGTKLEIK | – | – | – | – | – | – | no binding | 63.7 | 0.368 | 3.98e-05 | 625000
hzD01Lm12 (humanized, affinity-matured anti-human TSLP antibody) (antibody, human IgG2, V domains shown, also called hzD01m12; not shown: human kappa light chain constant region) VH: EVQLVQSGAEVKKPGASVKVSCKASGYTFTNYFIDWVRQAPGQGLEWIGVINPGSGGTNFNEKFKGRVTMTRDTSTSTAYMELSSLRSEDTAVYFCARESEVGEGFAYWGQGTLVTVSS VL: DIQMTQSPSSLSASVGDRVTISCRASQDISNYLNWYQQKPGKAPKLLIYYTSTLHSGVPSRFSGSGSGTDYTLTISSLQPEDIATYFCQQFDTLPYPFGQGTKLEIK | – | – | – | – | – | – | no binding | 98.3 | 0.426 | 6.08e-05 | 619000

Further lines, results first:

Kd [1] [pM] | koff [1] [s⁻¹] | kon [1] [M⁻¹ s⁻¹] | Kd [2] [pM] | koff [2] [s⁻¹] | kon [2] [M⁻¹ s⁻¹] | binding result [3] | Kd [4] [pM] | Response [4] | koff [4] [s⁻¹] | kon [4] [M⁻¹ s⁻¹] | Binder
2830 | 0.000225 | 79600 | – | – | – | – | – | – | – | – | IgG D01 (murine anti-human TSLP monoclonal antibody, clone D01) (antibody, V domains shown, Murine hybridoma IgG, kappa light chain amplified; also called 克隆D01) VH: QVQLQQSGAELVRPGTSVKVSCKASGYAFTNYFIDWVKQRPGQGLEWIGVINPGSGGTNFNEKFKGKATLTADKSSSTAYMQLSSLTSEDSAVYFCARESEVGEGFAYWGQGTLVTVSA VL: DIQMTQTSSSLSASLGDRVTISCRASQDISNYLNWYQQKPDGTVKLLIYYTSTLHSGVPSRFSGSGSGTDYSLTISNLEQEDIATYFCQQGNTLPYTFGGGTKLEIK
– | – | – | 985 | 0.000356 | 361000 | – | – | – | – | – | xiD01 (anti-human TSLP chimeric antibody) (antibody, human IgG2, V domains shown, also called 抗人TSLP嵌合抗体蛋白xiD01; not shown: human kappa light chain constant region) VH: QVQLQQSGAELVRPGTSVKVSCKASGYAFTNYFIDWVKQRPGQGLEWIGVINPGSGGTNFNEKFKGKATLTADKSSSTAYMQLSSLTSEDSAVYFCARESEVGEGFAYWGQGTLVTVSA VL: DIQMTQTSSSLSASLGDRVTISCRASQDISNYLNWYQQKPDGTVKLLIYYTSTLHSGVPSRFSGSGSGTDYSLTISNLEQEDIATYFCQQGNTLPYTFGGGTKLEIK
